The text below walks through data of patent US20040072185A1 (published 2004).

The data set concerns the molecule itself. The data set is described as follows: Western blotting of the microsomal fraction of transfected cells; self-association. Here is the method: The truncated SERCA1 protein could be detected in the microsomal fraction of transiently transfected cells, by western blotting. […] Immunohistochemical analyses of the transfected cells were carried out with the anti-SERCA1-T antibody and made it possible to detect a reticular location in the cells transfected with S1T+4.
For orientation: A western blot detects proteins with antibodies after separation by electrophoresis.

B1: S1T+4 truncated SERCA1 protein (other)
chain: MEAAHAKTTEECLAYFGVSETTGLTPDQVKRNLEKYGLNELPAEEGKTLWELVIEQFEDLLVRILLLAACISFVLAWFEEGEETITAFVEPFVILLILIANAIVGVWQERNAENAIEALKEYEPEMGKVYRADRKSVQRIKARDIVPGDIVEVAVGDKVPADIRILAIKSTTLRVDQSILTGESVSVIKHTEPVPDPRAVNQDKKNMLFSGTNIAAGKALGIVATTGVGTEIGKIRDQMAATEQDKTPLQQKLDEFGEQLSKVISLICVAVWLINIGHFNDPVHGGSWFRGAIYYFKIAVALAVAAIPEGLPAVITTCLALGTRRMAKKNAIVRSLPSVETLGCTSVICSDKTGTLTTNQMSVCKMFIIDKVDGDICLLNEFSITGSTYAPEGEVPKVSMRRSARPPRQHSPPWWRR
notes: Splice variant of SERCA1 lacking exon 11, expected size 46 kDa; Expressed in transfected cells or endogenous in cell lines; also called SERCA1-T
As to B1, the binding result is reported as “binds”.
